Measurements: patent US12630600B2 (MEDIMMUNE LIMITED, priority 2022, dated 2026)
Starred links: 1 amine or outer side, 2 acyl side, 3 side chain; linkers in the order of their positions; H or OH if unused. Non-standard residues stand in square brackets, D forms with d. Groups on a side chain read outwards from the residue. No end group written: not given here. *: point of attachment. C20 diacid = O=C(O)CCCCCCCCCCCCCCCCCCC(=O)*; C18 diacid = O=C(O)CCCCCCCCCCCCCCCCC(=O)*; γGlu = O=C(O)[C@H](CCC(=O)[*:2])N[*:1]; αMeF = C[C@](N)(Cc1ccccc1)C(=O)O; AEEA = NCCOCCOCC(=O)O; Aib = CC(C)(N)C(=O)O

Legend:
human GLP-1 receptor = human GLP-1 receptor (human, UniProt P43220); test: cell-based or functional assay
human glucagon receptor = human glucagon receptor (human, UniProt P47871); test: cell-based or functional assay

Binder	cAMP production EC50 (human GLP-1 receptor) [nM]	cAMP production EC50 (human glucagon receptor) [nM]
H[Aib]QGTFTSDVSK[αMeF]LDSK([γGlu-γGlu-AEEA-AEEA-γGlu-γGlu-C18 diacid])RAQDFVRWLLEG[Aib]-OH (N-terminus assumed; SMILES CC(C)C[C@H](NC(=O)[C@H](CC(C)C)NC(=O)[C@H](Cc1c[nH]c2ccccc12)NC(=O)[C@H](CCCNC(=N)N)NC(=O)[C@@H](NC(=O)[C@H](Cc1ccccc1)NC(=O)[C@H](CC(=O)O)NC(=O)[C@H](CCC(N)=O)NC(=O)[C@H](C)NC(=O)[C@H](CCCNC(=N)N)NC(=O)[C@H](CCCCNC(=O)CC[C@H](NC(=O)CC[C@H](NC(=O)COCCOCCNC(=O)COCCOCCNC(=O)CC[C@H](NC(=O)CC[C@H](NC(=O)CCCCCCCCCCCCCCCCC(=O)O)C(=O)O)C(=O)O)C(=O)O)C(=O)O)NC(=O)[C@H](CO)NC(=O)[C@H](CC(=O)O)NC(=O)[C@H](CC(C)C)NC(=O)[C@](C)(Cc1ccccc1)NC(=O)[C@H](CCCCN)NC(=O)[C@H](CO)NC(=O)[C@@H](NC(=O)[C@H](CC(=O)O)NC(=O)[C@H](CO)NC(=O)[C@@H](NC(=O)[C@H](Cc1ccccc1)NC(=O)[C@@H](NC(=O)CNC(=O)[C@H](CCC(N)=O)NC(=O)C(C)(C)NC(=O)[C@@H](N)Cc1c[nH]cn1)[C@@H](C)O)[C@@H](C)O)C(C)C)C(C)C)C(=O)N[C@@H](CCC(=O)O)C(=O)NCC(=O)NC(C)(C)C(=O)O) [Peptide 137]	0.143	0.268
H[Aib]QGTFTSDVSK[αMeF]LDSK([γGlu-γGlu-AEEA-AEEA-γGlu-γGlu-C18 diacid])RAQDFVRWLLE[Aib]G-OH (N-terminus assumed; SMILES CC(C)C[C@H](NC(=O)[C@H](Cc1c[nH]c2ccccc12)NC(=O)[C@H](CCCNC(=N)N)NC(=O)[C@@H](NC(=O)[C@H](Cc1ccccc1)NC(=O)[C@H](CC(=O)O)NC(=O)[C@H](CCC(N)=O)NC(=O)[C@H](C)NC(=O)[C@H](CCCNC(=N)N)NC(=O)[C@H](CCCCNC(=O)CC[C@H](NC(=O)CC[C@H](NC(=O)COCCOCCNC(=O)COCCOCCNC(=O)CC[C@H](NC(=O)CC[C@H](NC(=O)CCCCCCCCCCCCCCCCC(=O)O)C(=O)O)C(=O)O)C(=O)O)C(=O)O)NC(=O)[C@H](CO)NC(=O)[C@H](CC(=O)O)NC(=O)[C@H](CC(C)C)NC(=O)[C@](C)(Cc1ccccc1)NC(=O)[C@H](CCCCN)NC(=O)[C@H](CO)NC(=O)[C@@H](NC(=O)[C@H](CC(=O)O)NC(=O)[C@H](CO)NC(=O)[C@@H](NC(=O)[C@H](Cc1ccccc1)NC(=O)[C@@H](NC(=O)CNC(=O)[C@H](CCC(N)=O)NC(=O)C(C)(C)NC(=O)[C@@H](N)Cc1c[nH]cn1)[C@@H](C)O)[C@@H](C)O)C(C)C)C(C)C)C(=O)N[C@@H](CC(C)C)C(=O)N[C@@H](CCC(=O)O)C(=O)NC(C)(C)C(=O)NCC(=O)O) [Peptide 138]	0.104	0.184
H[Aib]QGTFTSDVSK[αMeF]LDSK([AEEA-AEEA-γGlu-C18 diacid])RARDFVAWLLE[Aib]G-OH (N-terminus assumed; SMILES CC(C)C[C@H](NC(=O)[C@H](Cc1c[nH]c2ccccc12)NC(=O)[C@H](C)NC(=O)[C@@H](NC(=O)[C@H](Cc1ccccc1)NC(=O)[C@H](CC(=O)O)NC(=O)[C@H](CCCNC(=N)N)NC(=O)[C@H](C)NC(=O)[C@H](CCCNC(=N)N)NC(=O)[C@H](CCCCNC(=O)COCCOCCNC(=O)COCCOCCNC(=O)CC[C@H](NC(=O)CCCCCCCCCCCCCCCCC(=O)O)C(=O)O)NC(=O)[C@H](CO)NC(=O)[C@H](CC(=O)O)NC(=O)[C@H](CC(C)C)NC(=O)[C@](C)(Cc1ccccc1)NC(=O)[C@H](CCCCN)NC(=O)[C@H](CO)NC(=O)[C@@H](NC(=O)[C@H](CC(=O)O)NC(=O)[C@H](CO)NC(=O)[C@@H](NC(=O)[C@H](Cc1ccccc1)NC(=O)[C@@H](NC(=O)CNC(=O)[C@H](CCC(N)=O)NC(=O)C(C)(C)NC(=O)[C@@H](N)Cc1c[nH]cn1)[C@@H](C)O)[C@@H](C)O)C(C)C)C(C)C)C(=O)N[C@@H](CC(C)C)C(=O)N[C@@H](CCC(=O)O)C(=O)NC(C)(C)C(=O)NCC(=O)O) [Peptide 142]	0.0594	0.108
H[Aib]QGTFTSDVSK[αMeF]LDSK([γGlu-γGlu-AEEA-AEEA-γGlu-γGlu-C20 diacid])RAQDFVRWLLE[Aib]G-OH [Peptide 139]	0.63	0.984
H[Aib]QGTFTSDVSK[αMeF]LDSK([AEEA-AEEA-γGlu-C18 diacid])RAQDFVAWLLE[Aib]G-OH (N-terminus assumed; SMILES CC(C)C[C@H](NC(=O)[C@H](Cc1c[nH]c2ccccc12)NC(=O)[C@H](C)NC(=O)[C@@H](NC(=O)[C@H](Cc1ccccc1)NC(=O)[C@H](CC(=O)O)NC(=O)[C@H](CCC(N)=O)NC(=O)[C@H](C)NC(=O)[C@H](CCCNC(=N)N)NC(=O)[C@H](CCCCNC(=O)COCCOCCNC(=O)COCCOCCNC(=O)CC[C@H](NC(=O)CCCCCCCCCCCCCCCCC(=O)O)C(=O)O)NC(=O)[C@H](CO)NC(=O)[C@H](CC(=O)O)NC(=O)[C@H](CC(C)C)NC(=O)[C@](C)(Cc1ccccc1)NC(=O)[C@H](CCCCN)NC(=O)[C@H](CO)NC(=O)[C@@H](NC(=O)[C@H](CC(=O)O)NC(=O)[C@H](CO)NC(=O)[C@@H](NC(=O)[C@H](Cc1ccccc1)NC(=O)[C@@H](NC(=O)CNC(=O)[C@H](CCC(N)=O)NC(=O)C(C)(C)NC(=O)[C@@H](N)Cc1c[nH]cn1)[C@@H](C)O)[C@@H](C)O)C(C)C)C(C)C)C(=O)N[C@@H](CC(C)C)C(=O)N[C@@H](CCC(=O)O)C(=O)NC(C)(C)C(=O)NCC(=O)O) [Peptide 141]	0.264	0.392

Second part, the binder after the results:

cAMP production EC50 (human GLP-1 receptor) [nM]	cAMP production EC50 (human glucagon receptor) [nM]	Binder
0.0452	0.702	H[Aib]QGTFTSDVSK[αMeF]LDSK([γGlu-γGlu-AEEA-AEEA-γGlu-γGlu-C18 diacid])RARDFVRWLLE[Aib]G-OH (N-terminus assumed; SMILES CC(C)C[C@H](NC(=O)[C@H](Cc1c[nH]c2ccccc12)NC(=O)[C@H](CCCNC(=N)N)NC(=O)[C@@H](NC(=O)[C@H](Cc1ccccc1)NC(=O)[C@H](CC(=O)O)NC(=O)[C@H](CCCNC(=N)N)NC(=O)[C@H](C)NC(=O)[C@H](CCCNC(=N)N)NC(=O)[C@H](CCCCNC(=O)CC[C@H](NC(=O)CC[C@H](NC(=O)COCCOCCNC(=O)COCCOCCNC(=O)CC[C@H](NC(=O)CC[C@H](NC(=O)CCCCCCCCCCCCCCCCC(=O)O)C(=O)O)C(=O)O)C(=O)O)C(=O)O)NC(=O)[C@H](CO)NC(=O)[C@H](CC(=O)O)NC(=O)[C@H](CC(C)C)NC(=O)[C@](C)(Cc1ccccc1)NC(=O)[C@H](CCCCN)NC(=O)[C@H](CO)NC(=O)[C@@H](NC(=O)[C@H](CC(=O)O)NC(=O)[C@H](CO)NC(=O)[C@@H](NC(=O)[C@H](Cc1ccccc1)NC(=O)[C@@H](NC(=O)CNC(=O)[C@H](CCC(N)=O)NC(=O)C(C)(C)NC(=O)[C@@H](N)Cc1c[nH]cn1)[C@@H](C)O)[C@@H](C)O)C(C)C)C(C)C)C(=O)N[C@@H](CC(C)C)C(=O)N[C@@H](CCC(=O)O)C(=O)NC(C)(C)C(=O)NCC(=O)O) [Peptide 144]
0.0191	0.0326	H[Aib]QGTFTSDVSK[αMeF]LDSK([AEEA-AEEA-γGlu-C18 diacid])RARDFVQWLLE[Aib]G-OH (N-terminus assumed; SMILES CC(C)C[C@H](NC(=O)[C@H](Cc1c[nH]c2ccccc12)NC(=O)[C@H](CCC(N)=O)NC(=O)[C@@H](NC(=O)[C@H](Cc1ccccc1)NC(=O)[C@H](CC(=O)O)NC(=O)[C@H](CCCNC(=N)N)NC(=O)[C@H](C)NC(=O)[C@H](CCCNC(=N)N)NC(=O)[C@H](CCCCNC(=O)COCCOCCNC(=O)COCCOCCNC(=O)CC[C@H](NC(=O)CCCCCCCCCCCCCCCCC(=O)O)C(=O)O)NC(=O)[C@H](CO)NC(=O)[C@H](CC(=O)O)NC(=O)[C@H](CC(C)C)NC(=O)[C@](C)(Cc1ccccc1)NC(=O)[C@H](CCCCN)NC(=O)[C@H](CO)NC(=O)[C@@H](NC(=O)[C@H](CC(=O)O)NC(=O)[C@H](CO)NC(=O)[C@@H](NC(=O)[C@H](Cc1ccccc1)NC(=O)[C@@H](NC(=O)CNC(=O)[C@H](CCC(N)=O)NC(=O)C(C)(C)NC(=O)[C@@H](N)Cc1c[nH]cn1)[C@@H](C)O)[C@@H](C)O)C(C)C)C(C)C)C(=O)N[C@@H](CC(C)C)C(=O)N[C@@H](CCC(=O)O)C(=O)NC(C)(C)C(=O)NCC(=O)O) [Peptide 143]
0.0226	4.59	H[Aib]QGTFTSDVSK[αMeF]LDSK([AEEA-AEEA-γGlu-C18 diacid])RAQDFVRWLASRGI-OH (N-terminus assumed; SMILES CC[C@H](C)[C@H](NC(=O)CNC(=O)[C@H](CCCNC(=N)N)NC(=O)[C@H](CO)NC(=O)[C@H](C)NC(=O)[C@H](CC(C)C)NC(=O)[C@H](Cc1c[nH]c2ccccc12)NC(=O)[C@H](CCCNC(=N)N)NC(=O)[C@@H](NC(=O)[C@H](Cc1ccccc1)NC(=O)[C@H](CC(=O)O)NC(=O)[C@H](CCC(N)=O)NC(=O)[C@H](C)NC(=O)[C@H](CCCNC(=N)N)NC(=O)[C@H](CCCCNC(=O)COCCOCCNC(=O)COCCOCCNC(=O)CC[C@H](NC(=O)CCCCCCCCCCCCCCCCC(=O)O)C(=O)O)NC(=O)[C@H](CO)NC(=O)[C@H](CC(=O)O)NC(=O)[C@H](CC(C)C)NC(=O)[C@](C)(Cc1ccccc1)NC(=O)[C@H](CCCCN)NC(=O)[C@H](CO)NC(=O)[C@@H](NC(=O)[C@H](CC(=O)O)NC(=O)[C@H](CO)NC(=O)[C@@H](NC(=O)[C@H](Cc1ccccc1)NC(=O)[C@@H](NC(=O)CNC(=O)[C@H](CCC(N)=O)NC(=O)C(C)(C)NC(=O)[C@@H](N)Cc1c[nH]cn1)[C@@H](C)O)[C@@H](C)O)C(C)C)C(C)C)C(=O)O) [Peptide 145]
